Reference: patent US20250002610A1 (Genmab, published 2025)

Key:
[1] = target: T1, cynomolgus monkey DR4 with death domain deletion on ExpiCHO-S cells (cynomolgus monkey (Macaca fascicularis)); test: flow cytometry, ExpiCHO-S cells expressing cynomolgus monkey DR4, n = 1
T1 construct: also called cynomolgus DR4
T1 chain: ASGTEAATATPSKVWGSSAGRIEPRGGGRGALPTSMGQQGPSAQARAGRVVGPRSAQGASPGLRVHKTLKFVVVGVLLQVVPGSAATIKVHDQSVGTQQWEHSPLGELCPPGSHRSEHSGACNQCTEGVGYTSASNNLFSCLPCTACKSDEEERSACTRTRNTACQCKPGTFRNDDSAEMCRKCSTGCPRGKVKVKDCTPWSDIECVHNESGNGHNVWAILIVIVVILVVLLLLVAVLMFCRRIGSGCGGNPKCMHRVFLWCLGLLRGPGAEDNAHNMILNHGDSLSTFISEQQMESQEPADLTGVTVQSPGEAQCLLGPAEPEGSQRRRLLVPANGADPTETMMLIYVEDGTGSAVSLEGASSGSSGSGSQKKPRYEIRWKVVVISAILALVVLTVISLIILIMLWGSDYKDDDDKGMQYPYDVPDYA
Description: Binding of BisG1-FAPα-FERL/DR4-FERR, BisG1-DR4-FEAL/b12-FEAR and IgG1-DR4-FERR to DR4 of various species commonly used for nonclinical toxicology studies was assessed by flow cytometry using ExpiCHO-S cells transiently expressing DR4 from different animal species. In contrast to other species, rodents only express one DR which has highest homology with human DR5. Therefore, ExpiCHO-S cells transiently expressing rat and mouse DR protein were used instead. All DR constructs lack the intracellular DD to avoid apoptosis of transfected cells upon DR(4) activation. IgG1-b12 was used as negative control.

[2] = target: T2, FcγRIIIa-F158 (CD16a Protein, Human, Recombinant (ECD, 176 Phe, His & AVI Tag)) (human, UniProt P08637 17-208); test: SPR (Biacore 8K), His-tagged FcγRIIIa-F158 captured on an anti-His chip, antibody as analyte, endpoint response against concentration
T2 construct: extracellular domain; Bought reagent; not shown: His & AVI tag
T2 sequence (P08637 17-208): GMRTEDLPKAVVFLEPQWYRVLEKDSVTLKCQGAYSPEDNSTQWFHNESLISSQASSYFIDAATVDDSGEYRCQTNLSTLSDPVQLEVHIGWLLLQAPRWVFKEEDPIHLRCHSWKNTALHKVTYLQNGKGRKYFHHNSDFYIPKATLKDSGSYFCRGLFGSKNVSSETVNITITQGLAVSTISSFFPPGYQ
Description: (§1) Binding of BisG1-FAPα-FERL/DR4-FERR to immobilized human His-tagged FcγRs and FcRn was analyzed by SPR using a Biacore 8K SPR system (Cytiva). To this end, anti-His antibodies were covalently immobilized on the surface of Biacore Series S Sensor Chip CM5 (Cytiva, Cat. #29104988) using the Amine Coupling Kit (Cytiva, Cat. #BR100050) and a His Capture Kit (Cytiva, Cat. #29234602) according to the manufacturer's instructions. To assess antibody binding to immobilized human FcγRs, aliquots of the recombinant His-tagged FcγR proteins (Table 24) were diluted in HBS EP+Buffer pH 7.4 (Cytiva, Cat. #BR100669) and used to capture the FcγR proteins on the surface of the anti-His antibody-coated sensors using a flow rate of 10 μL/min and a contact time of 60 s. Captured levels ranged from 434 to 592 RU. After three start-up cycles of HBS-EP+Buffer, concentration ranges of BisG1-FAPα-FERL/DR4-FERR or IgG1-b12 antibodies (Table 25) were injected to generate binding curves on FcγR-captured sensors (active surface). For each antibody sample, a parallel flow cell without captured FcγRs was included (reference surface), which was used for RU background correction.
(§2) All sensorgrams were subtracted by the signal of the third start-up cycle with buffer only (mock analyte). […]

[3] = target: T3, FcγRIIIa-V158 (CD16a Protein, Human, Recombinant (176 Val, His & AVI Tag)) (human, UniProt P08637 17-208); test: SPR (Biacore 8K), His-tagged FcγRIIIa-V158 captured on an anti-His chip, antibody as analyte, endpoint response against concentration
T3 construct: Bought reagent; not shown: His & AVI tag
T3 sequence (P08637 17-208 F176V limits assumed): as the sequence (P08637 17-208) above, with F160V counted along it
Description: as §1, §2

B1: IgG1-DR4-FERR (antibody, V domains shown)
VH: QVQLQESGPGLVKPSGTLSLTCAVSGGSISSYSWWSWIRQPPGKGLEWIGELYHSGSTNYNPSLKSRVTISVDKSKNQFSLKLRSVTAADTAVYYCVRGVATIDYWGQGTLVTVSS
VL: QSALTQPPSASGSPGQSVTISCTGTSSDVGGYNFVSWYQQDPGKAPKLLIYEVTKRPSGVPDRFSGSKSGNTASLTVSGLQAEDEADYYCSSYAGSNNVMFGGGTKLTVLG
notes: Bivalent monoclonal IgG1 lambda
EC50 [1]: 2.57 µg/mL

B2: IgG1-b12 (antibody)
heavy: not shown
light: EIVLTQSPGTLSLSPGERATFSCRSSHSIRSRRVAWYQHKPGQAPRLVIHGVSNRASGISDRFSGSGSGTDFTLTITRVEPEDFALYYCQVYGASSYTFGQGTKLERKRTVAAPSVFIFPPSDEQLKSGTASVVCLLNNFYPREAKVQWKVDNALQSGNSQESVTEQDSKDSTYSLSSTLTLSKADYEKHKVYACEVTHQGLSSPVTKSFNRGEC
notes: HIV gp120 antibody b12 with wild-type IgG1 Fc; also called IgG-b12
binding result [2]: binds | binding result [3]: binds
